In PMC4338625, “Comparison of MAPK specificity across the ETS transcription factor family identifies a high-affinity ERK interaction required for ERG function in prostate cells” (Cell Communication and Signaling : CCS, 2015):
Blank lines part the entries; values can stand above or below the molecule they belong to.

Key:
[1] = target: ERK2 (pERK2, activated by co-expression with constitutively active MEK) (UniProt P63086); assay: MST; 200 nM fluorescently labeled (RED-NHS) ERK2 incubated 30 minutes at room temperature in the dark with different concentrations of purified ETS1 or ERG; standard glass capillaries; NanoTemper Monolith NT.115, LED 80%, IR laser 80%
[2] = target: T1, ETS1, full-length human, 6x His-tagged (human, UniProt P14921 1-441); assay: as above; conditions: both partners purified
T1 construct: human ETS1, full-length cDNA in pET28a
T1 sequence (looked up): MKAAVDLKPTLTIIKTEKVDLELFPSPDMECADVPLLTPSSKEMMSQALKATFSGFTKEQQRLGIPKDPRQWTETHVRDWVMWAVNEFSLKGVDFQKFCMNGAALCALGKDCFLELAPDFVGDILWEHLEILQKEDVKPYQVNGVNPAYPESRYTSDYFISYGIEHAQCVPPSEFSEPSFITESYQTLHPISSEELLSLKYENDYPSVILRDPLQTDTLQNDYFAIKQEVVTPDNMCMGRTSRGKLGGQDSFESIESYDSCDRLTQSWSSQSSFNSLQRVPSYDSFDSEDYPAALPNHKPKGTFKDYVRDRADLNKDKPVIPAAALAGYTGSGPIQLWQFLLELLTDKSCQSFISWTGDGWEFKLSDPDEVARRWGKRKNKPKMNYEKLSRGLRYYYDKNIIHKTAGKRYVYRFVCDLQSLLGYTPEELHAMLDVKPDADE

- Kd [1]: 230 nM
Molecule: ERG (isoform 1), full-length human, 6x His-tagged (natural protein)

- Kd [2]: 1790 nM
B1: ERK2 (pERK2, activated by co-expression with constitutively active MEK) (enzyme, UniProt P63086 1-358, looked up)
chain: MAAAAAAGPEMVRGQVFDVGPRYTNLSYIGEGAYGMVCSAYDNLNKVRVAIKKISPFEHQTYCQRTLREIKILLRFRHENIIGINDIIRAPTIEQMKDVYIVQDLMETDLYKLLKTQHLSNDHICYFLYQILRGLKYIHSANVLHRDLKPSNLLLNTTCDLKICDFGLARVADPDHDHTGFLTEYVATRWYRAPEIMLNSKGYTKSIDIWSVGCILAEMLSNRPIFPGKHYLDQLNHILGILGSPSQEDLNCIINLKARNYLLSLPHKNKVPWNRLFPNADSKALDLLDKMLTFNPHKRIEVEQALAHPYLEQYYDPSDEPIAEAPFKFDMELDDLPKEKLKELIFEETARFQPGYRS
modifications: phosphorylated by co-expressed constitutively active MEK (pERK2); fluorescently labeled with amine reactive RED-NHS dye (Monolith Protein Labeling Kit RED-NHS)
notes: also called ERK2 kinase; source: co-expressed with constitutively active MEK, purified from bacteria as described [52]
